Results: patent US20250312387A1, “BACTERIAL THERANOSTIC RADIOIMMUNOTHERAPY” (priority 2024, published 2025)

B1: 2D12.5: monoclonal anti-DOTA(radiometal) antibody / scFv, SEQ ID NO: 1 (protein)
scFv: QVKLQESGPGLVQPSQSLSITCTVSGFSLTDYGVHWVRQSPGKGLEWLGVIWSGGGTAYTAAFISRLNIYKDNSKNQVFFEMNSLQANDTAMYYCARRGSYPYNYFDVWGQGTTVTVSSGGGGSGGGGSGGGGSQAVVTQESALTTSPGETVTLTCRSSTGAVTTSNYANWVQEKPDHLFTGLIGGNNNRPPGVPARFSGSLIGDKAALTIAGTQTEDEAIYFCALWYSNHWVFGGGTRLTVLG
modifications: 2D12.5 scFv

Columns and labels:
MC38 tumor cells = type: in vivo, C57BL/6 mice; conditions: two hours after intravenous 10 nmol DOTA, mice injected intratumorally with Sal-o-DBP
Experimental: To determine the biodistribution of Sal-o-DBP, three groups of six-week old C57BL/6 mice were injected subcutaneously with 1×10^5 MC38 tumor cells. When tumors reached approximately 200 mm^3, the mice were injected intravenously or intratumorally with 1×10^7 CFU of Sal-o-DBP in 50 μL of saline, or intravenously with saline. Sixty hours after bacterial injection, mice were injected intraperitoneally (IP) with 100 mg arabinose in 400 μL saline. Sixty-six hours after bacterial injection mice were injected intravenously with 10 nmol DOTA in 50 μL of PBS. Two hours after DOTA injection, mouse tumors, spleens, livers, and kidneys were collected for biodistribution analysis. The organs were weighed before being homogenized in equal volumes of sterile PBS. Serial dilutions of the organ slurry were prepared (tumor 10^−5, spleen, liver, and kidney 10-2) and 50 μL of the dilutions were plated on LB agar plates containing 100 μg/mL carbenicillin and incubated overnight at 37° C. Colonies were counted and the total CFU/g was determined by the formula (colony count)×(dilution factor)[…].
To determine the biodistribution of DOTA, the organs were analyzed via inductively coupled plasma mass spectrometry (ICP-MS). Fifty μL of Iridium standard was added to each sample. The organ and water mixture was mixed with one mL of 3:1 nitric acid: hydrogen peroxide overnight. […]

[1] = cited from earlier work

Molecule	biodistribution of DOTA in tumor, liver, spleen, and kidney (MC38 tumor cells)	affinity for DOTA chelates of yttrium and lutetium ([1]; monoclonal anti-DOTA(radiometal) antibody)	Kd ([1]; pure scFv, DOTA-biotin-Y, read-out: binding kinetics of free 2D12.5 to DOTA-biotin-Y) [nM]
O=C(O)CN1CCN(CC(=O)O)CCN(CC(=O)O)CCN(CC(=O)O)CC1 [DOTA, 2,2′,2″,2″′-(1,4,7,10-tetraazacyclododecane-1,4,7,10-tetrayl)tetraacetic acid]	strong levels in the tumor and kidneys with some DOTA remaining in the liver and spleen		
B1		low nanomolar affinity	3.7
